Results published in article PMC314469, “Protein Interaction Networks by Proteome Peptide Scanning” (PLoS Biology, 2004).

T1: Boi1 SH3 (BOI1_YEAST), P38041
T1 chain: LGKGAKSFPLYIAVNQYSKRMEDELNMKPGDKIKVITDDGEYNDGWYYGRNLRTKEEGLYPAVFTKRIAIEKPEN

T2: Yfr024 SH3 (LSB3_YEAST), P43603
T2 chain: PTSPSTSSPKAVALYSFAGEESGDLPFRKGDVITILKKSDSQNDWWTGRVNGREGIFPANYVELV

T3: Boi2 SH3 (BOI2_YEAST), P39969
T3 chain: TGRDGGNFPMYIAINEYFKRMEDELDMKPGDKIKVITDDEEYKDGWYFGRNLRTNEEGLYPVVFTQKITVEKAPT

T4: Yhr016c SH3 (YSC84_YEAST), P32793
T4 chain: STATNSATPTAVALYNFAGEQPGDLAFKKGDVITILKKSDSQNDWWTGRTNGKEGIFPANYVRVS

T5: Rvs167 SH3 (RV167_YEAST), P39743
T5 chain: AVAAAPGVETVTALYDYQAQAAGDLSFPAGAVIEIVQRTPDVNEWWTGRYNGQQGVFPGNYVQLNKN


Target: T1, Boi1 SH3 (BOI1_YEAST), P38041
Assay: SPOT array

| Binder | normalised SPOT signal, Boehringer light units (BLU); mean over the file's lines of this peptide |
| --- | --- |
| ILYPDIPGKNYFLT [YOL087C 29-42] | 118 |
| IFGPFGPMKEVKIL [YDR432W 144-157] | 63.3 |
| INQPSTPKKLKRKS [YDR501W 316-329] | 152 |
| IFGPSFPFRSHIDV [YDL224C 170-183] | 138 |
| IIGPDEPEKSLILK [YMR066W 43-56] | 95.1 |
| ILTPDFPERRRLMK [YLR233C 283-296] | 8730 |
| IMPPPKPFRHGLDS [YBR108W 517-530] | 258 |
| ILSPGYPNKSFNNK [YGL073W 653-666] | 92.5 |
| IFFPNEPIRFVYPY [YPR072W 415-428] | 30.1 |
| IFPPLNPARTSLNS [YDR312W 172-185] | 72.9 |
| ILLPPLPERAYIMD [YGL144C 459-472] | 12.7 |

Target: T2, Yfr024 SH3 (LSB3_YEAST), P43603
Assay: SPOT array

| Binder | normalised SPOT signal, Boehringer light units (BLU); mean over the file's lines of this peptide |
| --- | --- |
| ILYPDIPGKNYFLT [YOL087C 29-42] | 116 |
| IFGPFGPMKEVKIL [YDR432W 144-157] | 195 |
| INQPSTPKKLKRKS [YDR501W 316-329] | 2480 |
| IFGPSFPFRSHIDV [YDL224C 170-183] | 9630 |
| IIGPDEPEKSLILK [YMR066W 43-56] | 86 |
| ILTPDFPERRRLMK [YLR233C 283-296] | 13700 |
| IMPPPKPFRHGLDS [YBR108W 517-530] | 30900 |
| ILSPGYPNKSFNNK [YGL073W 653-666] | 293 |
| IFFPNEPIRFVYPY [YPR072W 415-428] | 209 |
| IFPPLNPARTSLNS [YDR312W 172-185] | 5080 |
| ILLPPLPERAYIMD [YGL144C 459-472] | 26200 |

Target: T3, Boi2 SH3 (BOI2_YEAST), P39969
Assay: SPOT array

| Binder | normalised SPOT signal, Boehringer light units (BLU); mean over the file's lines of this peptide |
| --- | --- |
| ILYPDIPGKNYFLT [YOL087C 29-42] | 46.9 |
| IFGPFGPMKEVKIL [YDR432W 144-157] | 23.4 |
| INQPSTPKKLKRKS [YDR501W 316-329] | 22.2 |
| IFGPSFPFRSHIDV [YDL224C 170-183] | 31.8 |
| IIGPDEPEKSLILK [YMR066W 43-56] | 33.5 |
| ILTPDFPERRRLMK [YLR233C 283-296] | 99.2 |
| IMPPPKPFRHGLDS [YBR108W 517-530] | 222 |
| ILSPGYPNKSFNNK [YGL073W 653-666] | 68.5 |
| IFFPNEPIRFVYPY [YPR072W 415-428] | 36 |
| IFPPLNPARTSLNS [YDR312W 172-185] | 31.3 |
| ILLPPLPERAYIMD [YGL144C 459-472] | 38.9 |

Target: T4, Yhr016c SH3 (YSC84_YEAST), P32793
Assay: SPOT array

| Binder | normalised SPOT signal, Boehringer light units (BLU); mean over the file's lines of this peptide |
| --- | --- |
| ILYPDIPGKNYFLT [YOL087C 29-42] | 115 |
| IFGPFGPMKEVKIL [YDR432W 144-157] | 260 |
| INQPSTPKKLKRKS [YDR501W 316-329] | 126 |
| IFGPSFPFRSHIDV [YDL224C 170-183] | 6610 |
| IIGPDEPEKSLILK [YMR066W 43-56] | 63.1 |
| ILTPDFPERRRLMK [YLR233C 283-296] | 1780 |
| IMPPPKPFRHGLDS [YBR108W 517-530] | 35500 |
| ILSPGYPNKSFNNK [YGL073W 653-666] | 282 |
| IFFPNEPIRFVYPY [YPR072W 415-428] | 238 |
| IFPPLNPARTSLNS [YDR312W 172-185] | 829 |
| ILLPPLPERAYIMD [YGL144C 459-472] | 50600 |

Target: T5, Rvs167 SH3 (RV167_YEAST), P39743
Assay: SPOT array

| Binder | normalised SPOT signal, Boehringer light units (BLU); mean over the file's lines of this peptide |
| --- | --- |
| ILYPDIPGKNYFLT [YOL087C 29-42] | 32.7 |
| IFGPFGPMKEVKIL [YDR432W 144-157] | 56.3 |
| INQPSTPKKLKRKS [YDR501W 316-329] | 62.6 |
| IFGPSFPFRSHIDV [YDL224C 170-183] | 391 |
| IIGPDEPEKSLILK [YMR066W 43-56] | 23.6 |
| ILTPDFPERRRLMK [YLR233C 283-296] | 245 |
| IMPPPKPFRHGLDS [YBR108W 517-530] | 1540 |
| ILSPGYPNKSFNNK [YGL073W 653-666] | 100 |
| IFFPNEPIRFVYPY [YPR072W 415-428] | 65.5 |
| IFPPLNPARTSLNS [YDR312W 172-185] | 134 |
| ILLPPLPERAYIMD [YGL144C 459-472] | 14900 |
